Reference: the supplement of paper PMC9170038

Experiments:
MS2 coat protein [1] = assay: apparent KD of MS2 coat protein; designed switch direction (-1 OFF switch, 1 ON switch): 1; higher = weaker reporter binding
Summary of the method: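 SNAP-549-labelled MS2 coat protein was titrated, doubling from 0.7 or 1.5 nM to 3 µM, over designed RNA switches transcribed on Illumina chips by stalled E. coli RNA polymerase. Runs were done without input, with 200 uM small-molecule ligand, or with an oligonucleotide input. Apparent KD is the per-design median over clusters of curve-fitted normalised fluorescence.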

MS2 coat protein [2] = assay: apparent KD of MS2 coat protein; higher = weaker reporter binding; details: Eterna round: R107
Summary of the method: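 Designed RNA switches were made by on-chip transcription from Illumina sequencing clusters and then titrated with SNAP-549-labelled MS2 coat protein. Twofold steps ran from 0.7 or 1.5 nM to 3 µM, each lasting 0.8–1.5 h early and 10–20 min late, in 100 mM Tris-HCl pH 7.5, 80 mM KCl, 4 mM MgCl2, without or with constant ligand. Apparent KD is the per-design median of normalised cluster binding-curve fits.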

[3] = input ligand: microRNA oligo, concentration not stated
[4] = Eterna round: R95, input ligand: FMN 200 uM
[5] = Eterna round: R95, input ligand: microRNA oligo, concentration not stated
[6] = Eterna round: R95, input ligand: none
[7] = input ligand: theophylline 20 uM
[8] = input ligand: tryptophan 2.4 mM
[9] = input ligand: theophylline 2 mM

Row | Sequence | apparent KD of MS2 coat protein (MS2 coat protein [2]; input ligand: arginine 13.2 mM) | apparent KD of MS2 coat protein (MS2 coat protein [2]; [7]) | apparent KD of MS2 coat protein (MS2 coat protein [2]; [8]) | apparent KD of MS2 coat protein (MS2 coat protein [2]; [9]) | apparent KD of MS2 coat protein (MS2 coat protein [2]; input ligand: none) | other results
1 | AAAAAACAUGAGGAUCACCCAUGUCAAAAGACAUGAGGAUAUGUACAGACUUCGGUCUGUACAGAAGGCAUGAAAA [SS1 - 1011] (Eterna round: R96, puzzle: Same State 1) |  |  |  |  |  | apparent KD of MS2 coat protein (MS2 coat protein [1]; [3]): 359 nM
2 | AAAAAACAUGAGGAUCACCCAUGUCAAAAGACAUGAGGAUAUGUACAGACUUCGGUCUGUACAGAAGGCAUGAAAA [salish99_ss1_r3_093] (Eterna round: R96, puzzle: Same State 1) |  |  |  |  |  | apparent KD of MS2 coat protein (MS2 coat protein [1]; [3]): 359 nM
3 | AAAAAACAUGAGGAUCACCCAUGUCAAAAGACAUGAGGAUAUGUACAGACUUCGGUCUGUACAGAAGGCAUGAAAA [salish99_ss1_r3_093] (puzzle: Same State 1) |  |  |  |  |  | apparent KD of MS2 coat protein (MS2 coat protein [1]; [4]): 32.2 nM; apparent KD of MS2 coat protein (MS2 coat protein [1]; [5]): 570 nM; apparent KD of MS2 coat protein (MS2 coat protein [1]; [6]): 528 nM
4 | AAAAGAAACGCAGGAUAUGCACAUGAGGAUCACCCAUGUCCCACGGGCUCGACCGAGCCUGUGAAGCAGAAGGGUGUAAGAAAA [Erleusor] (Eterna round: R96, puzzle: Same State NG 2) |  |  |  |  |  | apparent KD of MS2 coat protein (MS2 coat protein [1]; input ligand: FMN 200 uM): 54.1 nM; apparent KD of MS2 coat protein (MS2 coat protein [1]; [3]): 208 nM; apparent KD of MS2 coat protein (MS2 coat protein [1]; input ligand: none): 74.7 nM
5 | AAAAGACAUGAGGAUCACCCAUGUAAAAACAUAGGAGGAUAUGUCAUGAAAAAAGACUUGACAGAAGGCCUUUGUC [SS1 - 49] (Eterna round: R96, puzzle: Same State 1) |  |  |  |  |  | apparent KD of MS2 coat protein (MS2 coat protein [1]; [3]): 156 nM
6 | AAAAGACAUGAGGAUCACCCAUGUAUGAAAAGUACAGGAUAUCACGAGCUAAGAAGCGAGUGAGAAGGGUGAAAAU [Sogedi] (puzzle: Same State 1) |  |  |  |  |  | apparent KD of MS2 coat protein (MS2 coat protein [1]; [4]): 519 nM; apparent KD of MS2 coat protein (MS2 coat protein [1]; [5]): 69.1 nM; apparent KD of MS2 coat protein (MS2 coat protein [1]; [6]): 109 nM
7 | AAAAGACAUGAGGAUCACCCAUGUGAAAACAUACAAGGAUAUGUGUGGAAACCGUACUAUACAGAAGGUGUAUGUC [SS1 - 85] (Eterna round: R96, puzzle: Same State 1) |  |  |  |  |  | apparent KD of MS2 coat protein (MS2 coat protein [1]; [3]): 25.1 nM
8 | AAAAUGGUAUGUUACAUGAGGAUCACCCAUGUACGGUCAUCUGAGGAUAUGGUGAUGUAGAAGAAUCAGAAGGCAGACAUUUAA [AK SSNG3-V2-26] (Eterna round: R96, puzzle: Same State NG 3) |  |  |  |  |  | apparent KD of MS2 coat protein (MS2 coat protein [1]; input ligand: FMN 200 uM): 27.9 nM; apparent KD of MS2 coat protein (MS2 coat protein [1]; [3]): 19.8 nM; apparent KD of MS2 coat protein (MS2 coat protein [1]; input ligand: none): 32.3 nM
9 | AAAAUGUGAUGUCACAUGAGGAUCACCCAUGUGGUGACAACUAAGGAUAUAACGAACCAAGGCGAUUAGAAGGUAGGAUCACAA [AK SSNG3-V2-17] (Eterna round: R96, puzzle: Same State NG 3) |  |  |  |  |  | apparent KD of MS2 coat protein (MS2 coat protein [1]; input ligand: FMN 200 uM): 102 nM; apparent KD of MS2 coat protein (MS2 coat protein [1]; [3]): 120 nM; apparent KD of MS2 coat protein (MS2 coat protein [1]; input ligand: none): 207 nM
10 | AAACAUGAGCGAGGAUAUACAUGAGGAUCACCCGUAGAAGGCGCAUGUAAAACAACAUGAGGAUCACCCAUGUCAUGUACAUGA [Same State NG1 S1] (Eterna round: R96, puzzle: Same State NG 1) |  |  |  |  |  | apparent KD of MS2 coat protein (MS2 coat protein [1]; input ligand: FMN 200 uM): 61.5 nM; apparent KD of MS2 coat protein (MS2 coat protein [1]; [3]): 55 nM; apparent KD of MS2 coat protein (MS2 coat protein [1]; input ligand: none): 66.9 nM
11 | UGUAACAUGAGGAUCACCCAUGUGAGUGAUACCAGACUAGUGUUGGUCCCUUGGCAGCACGCUGGGCGAGUGUGUAGUCUAUGCG [Same State - Theophylline A (Freestyle 17)] | 64.5 nM | 100 nM | 80.5 nM |  |  | 
12 | UGUAACAUGAGGAUCACCCAUGUGAGUGAUACCAGAUAAGUAGUAGUCCCUUGGCAGCAUAUUGGGCGAGUGUAUAGUCUAUGCG [Same State - Theophylline A (Freestyle 9)] | 125 nM | 207 nM | 152 nM |  |  | 
13 | UGUAGUACCAGACAUGAGGAUCACCCAUGUCGAGGACCGGUACGGCCGCCACUCGGCAGUUUGCGUCCUCAGGUACUCCGGGUAA [Dianreti] | 14.4 nM | 18.5 nM |  | 14.9 nM |  | 
14 | UGUAUGGAAACAUGAGGAUCACCCAUGUGGCGAGGACCGGUACGGCCGCCACUCGAGCAGCAAGCGUGUAUGACGCUGCUGCAUG [SS-trypA-0] | 27.3 nM | 60.6 nM | 25.1 nM | 49.7 nM | 40.9 nM | 
15 | UGUAUGGACUGAAGGAGCGCCUCAAAAUAACUUGAGGAUCACCCAAGUAAGGCGAAAGCCGGGCAGGUAGGUCGCAGUCCAUACU [ArgBX 3] | 24.1 nM | 28.1 nM | 12.4 nM | 15.2 nM | 10.6 nM | 
16 | UGUAUGGACUGAAGGAGCGGGUUGAUAACCUGAGGAUCAUCCAGGUAAAAGGCGAAAGCCACCCAGGUAGGUCGCAGUCCAUACU | 199 nM | 344 nM | 322 nM | 433 nM |  | 
17 | UGUAUGUGAUCUGAUACCAGAGUGACGCGAAAGCGAUAACCUGAGGAUCACCCUGGUAAACUCCCUUGGCAGCAGAUCGCAUACU | 53.7 nM | 60.2 nM | 79.7 nM | 24 nM | 75.3 nM | 

Row | Sequence | apparent KD of MS2 coat protein (MS2 coat protein [2]; input ligand: arginine 13.2 mM) | apparent KD of MS2 coat protein (MS2 coat protein [2]; [7]) | apparent KD of MS2 coat protein (MS2 coat protein [2]; [8]) | apparent KD of MS2 coat protein (MS2 coat protein [2]; [9]) | apparent KD of MS2 coat protein (MS2 coat protein [2]; input ligand: none) | other results
18 | UGUAUGUGAUCUGAUACCAGUCCAACUGGUAAAACUUGAGGAUCACCCAAGUAAAAUUGGGACCCUUGGCAGCAGAUCGCAUACU | 126 nM | 360 nM | 371 nM | 81.7 nM | 371 nM | 
19 | UGUCAGCGAAAGUUGACAUGUCUUACCGGUCGAGGACCGGUACGGCCGCCACUCGAUCUCUCGCACAUGAGGAUCACCCAUGUCG [SS Tryp A #17] | 12.8 nM | 15.4 nM |  | 12.8 nM |  | 
20 | UGUGCAUGAGUUGUAAAAGCUCAUGGGCAUCGAGGACCGGUACGGCCGCCACUCGGCUGUACAUGAGGAUCACCCAUGUCAGGGU [#1 Same State - Tryptophan A Attempt #22 (HarryS)] | 133 nM | 609 nM |  | 1100 nM |  | 
21 | UUACAUGAGGAUCACCCAUGUCAUAAUGAUACCAGAUAGUUAAUGAUCCCUUGGCAGCAUAAUACCUAGACAUUUAAGUCAUAGG [Aa] | 59.5 nM | 80 nM | 56.2 nM |  |  | 
22 | UUACAUGAGGAUCACCCAUGUCAUACAGAAGGAGCGUCACAUAAGACAGGUAGGUCGCUGUUAUUUAAUACUAUUAUAUCCUCUA [JR_Nu_ExcArginiA_Sub027] | 26.9 nM | 44.9 nM | 32.8 nM | 35.2 nM | 33.7 nM | 
23 | UUAGAUAUGACGGAUACCAGCGUGUUGUAGAACAUGAGGAUCACCCAUGUAGUGAUCGUGCGCCCUUGGCAGCUGGUAUGUUUGG [7.V] | 133 nM | 491 nM | 501 nM |  |  | 
24 | UUCAGACAUGAGGAUCACCCAUGUACUGAAGGAGCGGAUAAAUAUCCAGGUAGGUCGCAGUAUUGAGGGUCUACUUCCAGUCUUU [Reoruser] | 8.42 nM | 11.9 nM | 9.82 nM | 9.47 nM | 9.48 nM | 
25 | UUCAGCUAGUCGGCCGCCACUACAUGAGGAUCACCCAUGUAAUCCUAACACUGCUUCGGCAGUGGUAGGACCGGGACUAGCUGAG | 11.1 nM | 14.3 nM |  | 12.2 nM |  | 
26 | UUCAGCUAGUCGGCCGCCACUACAUGAGGAUCACCCAUGUAUCCUAAACACUGCUUCGGCAGUGGUAGGACCGGGACUAGCUGAG | 18.1 nM | 21.6 nM | 136 nM | 18.3 nM | 13.9 nM | 
27 | UUGAUCAUAUAUGAAAACAUAUAUGCAGAAGGAGCGUGAUAAAACACAGGUAGGUCGCUGAAGGGAACAUGAGGAUCACCCAUGU [AstrosSSArgA#3] | 30.2 nM | 39.4 nM | 26.8 nM | 34.1 nM | 27.2 nM | 
28 | UUGUUAUACGGAAGGAGCGUGUAAGAUUAAGAACAUGAGGAUCACCCAUGUUUUAAGGGAACACAGGUAGGUCGCCGUAUAGUGG [11.P] | 16.4 nM | 13.2 nM | 14.7 nM | 11.3 nM | 10 nM | 
29 | UUGUUGUACGGAAGGAGCGUGUAAGAUUAAGAACAUGAGGAUCACCCAUGUUUUAAGGGAACACAGGUAGGUCGCCGUGUGGUGG [11.Q] | 14 nM | 20 nM | 16.2 nM | 16.4 nM | 15.1 nM | 
30 | UUUAUGGAGCUUUUAUUUACGAUUUCUGAUACCAGUGUUUCAUUUCACCCUUGGCAGCAGUGACAUGAGGAUCACCCAUGUAAUA [JR_Nu_SSTheophyA_Sub020] | 28.1 nM | 35.1 nM | 27.7 nM |  |  | 
31 | UUUAUUAUUGACUCGUUUUGGUAUUAAGAACGAGGACCGGUACGGCCGCCACUCGUGAUAUACAUGAGGAUCACCCAUGUUAGCA [JR_Nu_SSTryptoA_Sub021] | 19.4 nM | 19.4 nM |  | 18.3 nM |  | 
32 | UUUUUCGCGGGCGAUACCAGCUUGAUCGUACUGGCCUGGUACAUGAGGAUCACCCAUGUAAGCCCUUGGCAGCGCGCGGGAGAAG [Exclusion - Theophylline B Attempt #1 (HarryS)] | 11.5 nM | 14.6 nM | 15.2 nM | 20.2 nM | 12.7 nM | 
33 | UUUUUCGCGUUUGAUACCAGCAGAGUUGUUCUGGUCUGGUACAUGAGGAUCACCCAUGUCUGCCCUUGGCAGCAAACGGGAGAAG [XTheo #30] | 14.5 nM | 15 nM | 14.8 nM |  |  | 
